Square brackets hold non-standard residues; d marks the D form. Side chains are listed from the residue outwards. Ends that are not written are not given here. mPEG 40 kDa (SVA) = 40 kDa methoxy poly(ethylene glycol) succinimidyl valerate (mPEG-SVA); triazole linker = not defined here; Fs = not defined here
How the values were obtained:
[1] = target: T1, human P-selectin-Ig chimera (human, UniProt P16109 42-771); assay: SPR (Biacore): biotinylated ligand on streptavidin chip, P-selectin-Ig flowed at 0.4-100 nM
T1 construct: No source is stated for the chimera used on the microarray and in SPR; also called P-Sel-Ig; P-sel-Ig

[2] = target: T1, human P-selectin-Ig chimera; assay: SPR (Biacore): biotinylated G4 on streptavidin chip, P-sel-Ig flowed at 0.4-100 nM, 1:1 model
[3] = target: T1, human P-selectin-Ig chimera; assay: flow cytometry competition: inhibition of human P-selectin-Fc chimera (3 µg/mL) binding to human monocytes
[4] = target: T1, human P-selectin-Ig chimera; assay: flow cytometry competition: inhibition of human P-selectin-Fc chimera (3 µg/mL) binding to human neutrophils
[5] = target: T2, murine P-selectin-Fc chimera (murine, UniProt Q01102 42-709); assay: flow cytometry competition: inhibition of murine P-selectin-Fc chimera (3 µg/mL) binding to murine monocytes
T2 construct: Bought from R&D Systems; also called mouse P-selectin chimera; species-specific P-selectin-Fc chimera; not shown: Fc part
T2 sequence (looked up): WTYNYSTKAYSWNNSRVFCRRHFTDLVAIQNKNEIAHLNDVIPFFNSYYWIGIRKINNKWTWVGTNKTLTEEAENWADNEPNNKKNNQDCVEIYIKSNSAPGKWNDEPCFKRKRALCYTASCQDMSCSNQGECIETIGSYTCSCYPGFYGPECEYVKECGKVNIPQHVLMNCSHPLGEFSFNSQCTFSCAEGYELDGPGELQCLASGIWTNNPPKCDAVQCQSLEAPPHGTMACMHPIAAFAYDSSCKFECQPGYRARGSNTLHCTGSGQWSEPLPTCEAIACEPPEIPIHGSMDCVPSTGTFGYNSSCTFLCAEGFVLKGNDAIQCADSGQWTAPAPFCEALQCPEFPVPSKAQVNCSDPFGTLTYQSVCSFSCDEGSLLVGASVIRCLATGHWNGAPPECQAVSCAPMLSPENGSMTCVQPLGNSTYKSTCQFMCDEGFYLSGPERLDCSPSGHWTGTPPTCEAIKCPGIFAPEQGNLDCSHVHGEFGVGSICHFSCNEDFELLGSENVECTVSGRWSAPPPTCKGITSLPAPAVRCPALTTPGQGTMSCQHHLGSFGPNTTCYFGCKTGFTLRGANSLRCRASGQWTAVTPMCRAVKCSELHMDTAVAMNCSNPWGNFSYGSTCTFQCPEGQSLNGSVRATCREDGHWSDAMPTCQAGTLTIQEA

[6] = target: T2, murine P-selectin-Fc chimera; assay: flow cytometry competition: inhibition of murine P-selectin-Fc chimera (3 µg/mL) binding to murine neutrophils

T1 sequence (P16109 42-771, change not shown): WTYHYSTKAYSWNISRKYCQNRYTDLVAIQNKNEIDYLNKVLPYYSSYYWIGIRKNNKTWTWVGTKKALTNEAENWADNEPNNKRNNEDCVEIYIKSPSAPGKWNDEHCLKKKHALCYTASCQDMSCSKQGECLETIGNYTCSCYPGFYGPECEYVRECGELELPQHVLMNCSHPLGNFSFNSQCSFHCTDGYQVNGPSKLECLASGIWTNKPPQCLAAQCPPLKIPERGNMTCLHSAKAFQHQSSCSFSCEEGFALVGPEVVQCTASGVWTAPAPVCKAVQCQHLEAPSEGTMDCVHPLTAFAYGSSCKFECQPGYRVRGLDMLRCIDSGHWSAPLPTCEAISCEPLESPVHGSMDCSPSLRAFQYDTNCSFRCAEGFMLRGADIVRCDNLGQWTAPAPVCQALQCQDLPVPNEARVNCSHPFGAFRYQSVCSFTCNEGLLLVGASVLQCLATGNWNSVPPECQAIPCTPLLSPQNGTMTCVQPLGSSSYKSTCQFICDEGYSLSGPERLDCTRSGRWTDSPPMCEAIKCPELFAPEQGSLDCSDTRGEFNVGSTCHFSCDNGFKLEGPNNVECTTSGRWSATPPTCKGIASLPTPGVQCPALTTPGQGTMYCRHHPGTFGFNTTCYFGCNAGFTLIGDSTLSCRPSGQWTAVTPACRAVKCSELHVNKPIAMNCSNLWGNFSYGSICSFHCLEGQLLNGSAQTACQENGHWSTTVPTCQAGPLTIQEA

B1: G4 (peptide)
peptide: KEFEFLDFDFLPETEPL
modifications: not fully specified (residues 3, 5, 8, 14); also: biotinylated for SPR, place not given here
notes: Synthetic glycosulfonopeptide analogue of the N-terminus of PSGL-1; also called compound 1
**Q.** With B1 as the binder, how does the Kd [1] read?
**A.** 0.05 µM

**Q.** And the Kd [2]?
**A.** 0.069 µM

**Q.** And the IC50 [3]?
**A.** 16 µM

**Q.** What about the IC50 [4] of the same binder?
**A.** 13 µM

**Q.** What about the IC50 [5] of the same binder?
**A.** 10 µM

B2: PEG40-G4 (P-G4) (peptide)
peptide: {mPEG 40 kDa (SVA)}-KE[Fs]E[Fs]LD[Fs]DFLPET([triazole linker-sLe^x])EPL
modifications: reading uncertain
notes: also called PEG-G4; pegylated click compound
**Q.** What does the source list for B2?
**A.** IC50 [3]: 12 µM; IC50 [4]: 9 µM; IC50 [5]: 6 µM; IC50 [6]: 9 µM

Source: patent US20240293553A1 (BETH ISRAEL DEACONESS MEDICAL CENTER, published 2024)
